40 sequences from the nanobody polyreactivity screen of Harvey et al. (2022) can be followed below.

This series can be described thus: yeast display, Sf9 membrane polyspecificity reagent, FACS + sequencing; frameworks hold sequencing errors. The gist of the method:
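Sorting gates, low and high (top ~1%), were placed on anti-HA fluorescence to track expression and on streptavidin fluorescence to track reagent binding. A clone's polyreactivity label is taken from the gate it came out of. The reagent was 10% biotinylated, detergent-solubilized Sf9 membrane, applied for 1 hour at 4 °C to galactose-induced yeast display cells.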
On to “QVQLVESGGGLVQAGGSLRLSCAASGSTFRYYAMGWYRQAPGKERELVAAITSGGSTNYADSVKGRFTISRDNAKNTVYLQMNSLKPEDTAVYYCAAGRRLRHRYNQGGPDYGYWGQGSQVTVSS”, for which the “polyreactivity (PSR sort gate)” value is recorded as “low polyreactivity”.
With “QFQLVESGGGLVQAGGSLRLSCAASGSTFIRYAMGWYRQAPGKERELVAAISRSGGNTYYADSVKGRFTISRDKAKNTVYLQMNSLKPEDTAVYYCNKDRQQALNYWGQGTQVNVSS”, the “polyreactivity (PSR sort gate)” value is “high polyreactivity”.
As for “QVQLVESGGGLVQAGGSLRLSCAASGSTFDRYAMGWYRQAPGKERELVAAITGSGGRTYYADSVKGRFTISRDNAKNTVYLQMNSLKPEDTAVYYCAARRSGYYLYSVDYWGQGTQVTVST”, the “polyreactivity (PSR sort gate)” value was “high polyreactivity”.
Regarding “QVQLVESGGGLVQAGGSLRLSCAASGSTFYRNVMGWYRQAPGKERELVAAISSGGSTYYADSVKGRFTISRDNAKNTVYLQMNSLKPEDTAVYYCARRLTREYDYWGQGTQVTVSS”, the “polyreactivity (PSR sort gate)” value is on record as “low polyreactivity”.
“QVQLVESGGGLVQAGGSLRLSCAASGIIFYLNAMGWYRLAPGKERELVAAISSSDGTTYYADSVKGRFTISRDNAKNTVYLQMNSLKPEDTAGYYCAAGQDWGYLDYDWVSYLYDYWGQGTQVTVSS”: the “polyreactivity (PSR sort gate)” value is given as “low polyreactivity”.
On to “QVQLVESGGGLVQAGGSLRLSCAASGRTFHYYAMGWYRQAPGKERELVASITYNGGDTYYADSVKGRFTISRDNAKNTVYLQMNSLKPEDTAVYYCAAEYYGHRYDYWGQGTQVTVSS”, for which the “polyreactivity (PSR sort gate)” value was “low polyreactivity”.
Regarding “QVQLVESGGGLVQAGGSLRLSCAASGSIFSVNAMGWYRQAPGKERELVAAISWRGGSTYYADSVKGRFTISRDNAKNTVYLQMNSLKPEDTAVYYCNAVISVKRSTRYGYWGQGTQVTVSS”, the “polyreactivity (PSR sort gate)” value is reported as “low polyreactivity”.
For “QVQLVESAGGLVQAGGSLRLICAASGRIFGGNTRGWYREAPGKERELGASIRSRGGRTNYADSLNGRFTISRDTAKNTVYLQMNSLQPEDTSVYYCDATQIYRFDYWGQGTQVTVSS”, the “polyreactivity (PSR sort gate)” value is “low polyreactivity”.
In the case of “QVQLVESGGGLVQAGGSLRLSCAASGRTFSDYVMGWYRQAPGKERELVAAINIGGGSTYYADSVKGRFTISRDNAKNTVYLQMNSLKPEDTAVYYCAAESAGSYLDYYWAYGYWGQGTQVTVSS”, the “polyreactivity (PSR sort gate)” value is reported as “low polyreactivity”.
Regarding “QVQLVESGGCLVQAGGSLRLSCAASGSTLYRYVMGWYRPAPGKESELVAAISWSGTNTYADSVKGRFTISRDNAKNTVYLQMNSLKPEDTAVYYSAAAGPGYNWGYRVYAIYDYWGQGSQVTVSS”, the “polyreactivity (PSR sort gate)” value is reported as “high polyreactivity”.
“QVQLVESGGGLVQAGGSLRLSCAASGYIIGGNAMGWYRQAPAKERELVAVISSRGGRTYYADSVKGRFTISRDNAKNTVSLQMNSQKPEDTAVYDCASIRYRGARGSGDKIFYYWGQGTQVTVSS”: the “polyreactivity (PSR sort gate)” value is “high polyreactivity”.
Take “QDQLVESGGGLVQAGGSLRLSCAASGFTFPVYAMGWYRQAPGKEWELVAAITRGGSTNYADSVKGRFTISRDNAKNTVYLQMNSLKPEDTAVYYCNADYAVAYHPDLGDYWGQGTQVTVSS”: the “polyreactivity (PSR sort gate)” value is “low polyreactivity”.
Take “QVQLVESGGGLVQAGGSLRLSCAASGIISIFNVMGWYRQAPGKERELVASITGRGGSTFYADSVKGRFTISRDNAKNTDYLQLNSLIPEDTAVYYCATDTGYTYPVTGLYDYWGQGTQVTVSS”: the “polyreactivity (PSR sort gate)” value is “low polyreactivity”.
For the sequence “QVQLVESGGGLVQAGGSLRLSCAASGFTFRGYAMGWYRQAPGKERELVAVISSGGSTNYADSVKGRFTISRDNAKNTVYLQMNSLKPEDTAVYYCNAGYWFRYYGGDYYLGGLNYYWGQGTQVTVSS”, the “polyreactivity (PSR sort gate)” value is on record as “low polyreactivity”.
“QVQLVESGGGLVQAGGSLRLSCAASGSTLFAYAMGWYRQAPGKERELVAAITSGASTNYADSVKGRFTISRDNAKNTVYLQMNSLKPEDTAVYYCAKDVSGTNPDYDYWGQGTQVTVSS”: the “polyreactivity (PSR sort gate)” value was “low polyreactivity”.
Turning to “QVQLVESGGGLVQAGGSLRLSCAASRSIFGIYTMGWSRQEPGKERELVAAIKSGGSTNYADSVKGRFTITRDNAKNTVYLQMNSKKPEDTAVYYCNAYIHPPGPRVYSREYDYWGQGTQVTVSS”, the “polyreactivity (PSR sort gate)” value was “low polyreactivity”.
For the sequence “QVQLVESGGGLVQAGGSLRLSCAASGIIFTYYAMGWYRQAPGKERELVAAITSSAGSTYYADSVKGRFTISRDNAKNTVYLQMNSLKPVDTAVYYCAAYSVYYYQGDDYWGQGTQVTVSS”, the “polyreactivity (PSR sort gate)” value was “high polyreactivity”.
For the sequence “QVQLVESGGGLVQAGGSLRLSCAASGFIFFYAMGWYRQAPGKERELVASIDSGVSTDYADSVKGRFTISRDNAKNTDYLQMNSLKTEDTAVYYCAADYRAPLEYWGQGTQVTVSS”, the “polyreactivity (PSR sort gate)” value is “low polyreactivity”.
Turning to “QVQSVESGGGLVQAGGSLRLSCAASGRTFSIYGMGWYRQAPGKERELVAAISWRSGSTYYADSVKGRFTISRDNAKNTVYLKMNSLKPEDTAVYYCAKRYILGYKPYSYWGQGTQVTVSS”, the “polyreactivity (PSR sort gate)” value was “high polyreactivity”.
For “QVQLVESGGGLVQAGGSLRLSSASSGFTFTFYAMGWYRQEPGKERELVAAISKGGGSTSYADSVKGRFTISRDNAKNTVYLQMNCLKPEETAVYYCAARYYYSRSRLYYYWGQGTQVTVSS”, the “polyreactivity (PSR sort gate)” value is recorded as “high polyreactivity”.
Take “QVQLVESGGGLVQAGGSLRLSCAASGSIFYLYAMGWYRQAPGKERELVATITASGGSTNYADSVKGRFTISRDNAKNTVYLQMNSLKPEDTAVYYCAAEYYYLVYEYDYWGQGTQVTVSS”: the “polyreactivity (PSR sort gate)” value was “high polyreactivity”.
Consider “QVQLVESGGGLVQAGGSLRLSCAASGITFYRYDMVWYRQAPGKERELVAAISRSGGSTYYADSVKGRFTISRDNAKNTVYLQMNSLKPEDSAVYYCAAYILGNRDGYDYWGQGTQVTVSS”, for which the “polyreactivity (PSR sort gate)” value is listed as “high polyreactivity”.
Consider “QVQLVESGGGLVQAGGSLRLSCAASGMIFRRYAMGWYRQAPGKERELVAAITSGGSTYYADSVKGRFTISRDNAKKTVYLQMNSLKAEDTAVYSCAAVFYYATYSKKFEYWGQGTQVTVSS”, for which the “polyreactivity (PSR sort gate)” value was “high polyreactivity”.
Regarding “QVQLVESGGGLVQAGGSLRLSCAASGSTFWVNVMGWYRQAPGKERELVATITSGGRTNYADSVKGRFTISRDNAKNTVYLQMNSLKPADTAVYDCAADLKRGDLMDYWGQGTQVTVSS”, the “polyreactivity (PSR sort gate)” value is given as “low polyreactivity”.
As to “QVQLQESGGGLVQAGASLRLSCAASGSIYDDTYMGSYRQAPGKERELVATIDSGSTTNYADSVKGRITISRDNEKNTVYLQMNSLKPEDSAVYYCAAADSHIDYFDYWGQGTQVTVSS”, the “polyreactivity (PSR sort gate)” value was “low polyreactivity”.
On to “QVQLVESGGGLVQAGGSLRLSCAASGFIFVRNAMGWYRQAPGKERELVAVITRGGSTYYADSVKGRFTISRDNAKNTVYLQMNSLKPEDTAVYYCDARYYRGTYGRTEGAMDYWGQGTQVTVSS”, for which the “polyreactivity (PSR sort gate)” value is reported as “high polyreactivity”.
Take “QVQLVESGGGLVQAGGSLRLSCAASGSIFGYYAMGWYRQAPGKEREFVATISTSGVSTYYADSVKGRFTISRDNAKNTVYLQMNSLKPEDTAVYYCNAYLWYTGWDYDGEDYWGQGTQVTVSS”: the “polyreactivity (PSR sort gate)” value is on record as “low polyreactivity”.
On to “QVQLVESGGGLVQAGGSLRLSCAASGSTFPPYAMGWYRQAPGKERELVADITRRGASTYYADSVKGRFTISRDNAKNTVYLQMNSLKPEDTAVYYCNAGRSRRYRIGRYYYWGQGTQVTVSS”, for which the “polyreactivity (PSR sort gate)” value was “high polyreactivity”.
As for “QVQLVESGGGLVQAGGSLRLSCAASGFTFTFNAMGWYRQAPGKERELVAGITSGTSTNYADSVKGRFTISRDNAKNTVYLQMNSLKPEDTAVYYCAADLYLTSGSQGVYVRYDYWGQGTQVTVSS”, the “polyreactivity (PSR sort gate)” value is “low polyreactivity”.
Consider “QVQLVESGGGLVQAGGSHRLSFAASGSLFYWYAMGWYRQAPGKERELVAAITTSGGRTYYADSVKGRFTISRDNAKNTVYLQMNSLIPEDSAVYYCNSAALFRYYDRWKTAYDYWGQGTQVTGSS”, for which the “polyreactivity (PSR sort gate)” value was “high polyreactivity”.
Turning to “QVQLVESGGGLVQAGGSLSLSCAASGRIFYGYVMVWYRQAPGKERELVAAITWSGSRTYYADSVKGRFTISRDNAKNTVFLQMNSLKPADTAVYYCAARIPSDGYYYWGQGTQVTVSS”, the “polyreactivity (PSR sort gate)” value is reported as “high polyreactivity”.
Consider “QVQLVESGGGLVHAGGSLRLSCAASGSTFYGYTMGWYRQAPGKERELVAVITSGGSTYYADSVKGRFTISRDNAKNTVYLQMNSLKPEDTAVYYCAKRYGYPAYGRPWRIGRTYDYWGQGTQVTVSS”, for which the “polyreactivity (PSR sort gate)” value is given as “low polyreactivity”.
In the case of “QVQLVESGGGLVQAGGSLRLSCAASGRIFYFNVMGWYRQAPGKVRELVAAIRWSVGTTYYADSVKGRFTISRDNAKNTVYLQMNSLKPEDTAVYYCAARRSFPLGTARMYYWGQGTQVTVSS”, the “polyreactivity (PSR sort gate)” value is reported as “high polyreactivity”.
Consider “QVQLVESGGPLVQSGGSLRIICPASGSTFRYYSMGWYRQAPGKERELVAAISYGGGITNYADSVKGRLTISRDNAKNTVYLQMNSLKPEDTAVYYCAAYDRITRYDYWGQGTQVTVSS”, for which the “polyreactivity (PSR sort gate)” value is listed as “high polyreactivity”.
The value for “QVQLVESGGGLVQAGGSLRLSCAASGSTFDNYAMGWYRQAPGKERELVAAISYSGGSTHYADSVKGRFTISRDNAKNTVYLQMNSLKPEDTAVYYCAADVSGDKGSIHMNYWGQGTQVTVSS” was “low polyreactivity”; that for “QVQLVESGGGLLQAGGSLRLSCADSGSTFGANSLRWYIQAPGKEREFVAAISGSGTTTYYADSVKGRFTISRDNAKNTFYLQMHRLKPEDTAVYYCDKTRIAHWLEYWGQGTQVTVSS” was “low polyreactivity”.
Take “QVQLVESGGGLVQAGGSLRLSCAASGSIIGRYAMAWYRPAPGQVRELVAAISTGGGRTYYADSVKGRFTISRDNAKNTVYLQMNSLKAEDTAVYYCNAGPYKGWGRMDYWGQGTQVTVSS”: the “polyreactivity (PSR sort gate)” value is given as “high polyreactivity”.
In the case of “QVQLVESGGGLVQAGGSLRLSCAASGSTFDYYTMGWYRQAPGKERELVAAISYSGSRTYYADSVKGRFTISRDNAKNTVYLQMNSLKPEDTAVYYCARVASSVWYKQEYSYYNFDYWGQGTQVTVSS”, the “polyreactivity (PSR sort gate)” value is “high polyreactivity”.
Regarding “QVQLVESGGGLVQAGGSLRLSCAASGIIFTYNAMGWSRQAPGKERELVAAISWRGGSTYYADSVKGRFTISRDNAKNTVYLQMNSLKPEDTAVYYCARYGTDHRLGYGYWGQGTQVTVSS”, the “polyreactivity (PSR sort gate)” value is reported as “low polyreactivity”.
The value for “QVQLVESGGGLVQAGGSLRLSCAASGFIFQSYAMGWYRQAPGKERELVAAISSRGGSTYYADSVKGRFTISRDIAKNTVYLQMNSLKPEDTAVYYCAADLYGNEYDYWGQGTQVTVSS” was “low polyreactivity”.
